Experimental data: patent US20210162000A1 (INSTITUT DE CARDIOLOGIE DE MONTREAL, published 2021)

Tests used:
[1] = target: T1, Full-length human V5-tagged PCSK9 (human, UniProt Q8NBP7 31-692, limits assumed); experiment: co-IP from transfected HEK293 cells, immunoblot
T1 construct: Expressed from pIRES2-EGFP in transfected cells. proPCSK9 and mature forms were both seen in the IPs; also called PCSK9-V5; wild-type PCSK9-V5
Procedure: All other Co-IP experiments were performed as described without the cross-linking step and in SDS-deprived RIPA buffer. HA-tagged proteins and GRP94 were immunoprecipitated with mouse anti-HA-tag (1:500; Cat. #H3663, Sigma-Aldrich) or rat anti-Grp94 (9G10, 1:1000; Cat. #ADI-SPA-850, Enzo Life Sciences).
We next decided to map GRP94 domain(s) important for PCSK9 protein-protein interaction. The overall domain structure of GRP94 includes a signal polypeptide (amino acids; aa1-21) followed by a N-terminal enzymatic ATP-binding domain (aa22-651), client-binding domain (CBD; aa652-678), C-terminal dimerization domain (aa679-799) and a KDEL polypeptide sequence (aa800-803) allowing retention of GRP94 in the endoplasmic reticulum. (Dollins et al., 2007; Maki et al., 1990; Wu et al., 2012) Thus, we first generated cDNA constructs encoding secretable HA-tagged forms of human GRP94 lacking its C-terminal KDEL polypeptide (SEQ ID. NO. 66; FIG. 2). HEK293 cells were transfected without or with SEQ ID. NO. 66 in absence or presence of PCSK9-V5 (FIG. 2a). […] NO. 66 is well expressed (Input; IB: HA) and secreted into media and that SEQ ID. NO. 66 interacts in complex with PCSK9 following immunoprecipitation (IP: V5; FIG. 2b). […] It was reported that a 27 aa C-terminal hydrophobic loop structure within GRP94 client-binding domain (CBD, amino acids aa652-678; ⁶⁵²[…], SEQ ID. NO. 4) was important for folding and interaction with Toll-like receptors and integrins. (Wu et al., 2012) Deletion or alanine-scan mutations in SEQ ID. NO. […] (Wu et al., 2012) Similarly, we generated two mutated constructs in which critical residues within the GRP94-CBD domain where mutated into alanine (AA1: ⁶⁵²[…], SEQ ID. NO. 78 and AA2: ⁶⁵²[…], SEQ ID. NO. 79). HEK293 cells were transfected with either an empty vector (−) or with SEQ ID. NO. 66, 64 or 65 constructs in presence or absence of PCSK9-V5 (FIG. 2b).

[2] = target: T2, Recombinant PCSK9-His6 of the Circulex in vitro competitive binding assay (human, UniProt Q8NBP7 31-692, limits assumed); experiment: solid phase PCSK9-LDLR EGF-AB in vitro competitive binding assay (Circulex CY-8150), 100 ng (13.46 nM) PCSK9-His6 with increasing SEQ ID NO. 6
T2 construct: also called WT PCSK9; wild-type human recombinant His-tagged PCSK9; not shown: His tag
T2 sequence (Q8NBP7 31-692 limits assumed): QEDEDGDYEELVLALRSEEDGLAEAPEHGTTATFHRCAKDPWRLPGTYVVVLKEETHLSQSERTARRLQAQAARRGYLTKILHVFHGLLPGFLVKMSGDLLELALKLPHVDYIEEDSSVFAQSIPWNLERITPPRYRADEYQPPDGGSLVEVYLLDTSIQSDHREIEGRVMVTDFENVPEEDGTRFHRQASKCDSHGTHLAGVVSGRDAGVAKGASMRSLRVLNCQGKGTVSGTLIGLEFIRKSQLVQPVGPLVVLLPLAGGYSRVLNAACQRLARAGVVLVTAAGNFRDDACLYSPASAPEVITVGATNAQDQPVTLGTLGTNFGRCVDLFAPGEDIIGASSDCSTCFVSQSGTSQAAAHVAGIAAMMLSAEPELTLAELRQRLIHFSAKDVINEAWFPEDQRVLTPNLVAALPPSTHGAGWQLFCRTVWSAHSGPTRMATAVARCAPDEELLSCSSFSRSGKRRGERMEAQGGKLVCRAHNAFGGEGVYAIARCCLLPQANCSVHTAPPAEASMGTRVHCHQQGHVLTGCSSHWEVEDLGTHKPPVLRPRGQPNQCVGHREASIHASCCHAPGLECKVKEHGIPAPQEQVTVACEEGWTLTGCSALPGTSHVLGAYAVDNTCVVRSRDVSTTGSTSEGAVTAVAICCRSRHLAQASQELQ
Procedure: Solid phase PCSK9-LDLR epidermal growth factor precursor homology domain A and B (LDLR EGF-AB) in vitro competitive binding assay (Circulex; Cat. #CY-8150) was performed with 100 ng (13.46 nM) of recombinant PCSK9-His6 together with increasing amount of recombinant SEQ ID NO. 6 according to manufacturer's recommendations. Using this in vitro competitive assay, SEQ ID NO.

T1 sequence (Q8NBP7 31-692 limits assumed): as above

B1: Secretable ~20 kDa HA-tagged protein containing the CBD and C-terminal domains of GRP94 (CBD-CT; SEQ ID NO 46) (other)
chain: YGWSGNMERIMKAQAYQTGKDISTNYYASQKKTFEINPRHPLIRDMLRRIKEDEDDKTVLDLAVVLFETATLRSGYLLPDTKAYGDRIERMLRLSLNIDPDAKVEEEPEEEPEETAEDTTEDTEQDEDEEMDVGTDEEEETAKESTAEYPYDVPDYA
**Q.** Does B1 bind [1]?
**A.** binds

B2: Recombinant SEQ ID NO 6, GRP94 CBD-CT (aa 652-799), His6 tag purified from E. coli (other)
chain: YGWSGNMERIMKAQAYQTGKDISTNYYASQKKTFEINPRHPLIRDMLRRIKEDEDDKTVLDLAVVLFETATLRSGYLLPDTKAYGDRIERMLRLSLNIDPDAKVEEEPEEEPEETAEDTTEDTEQDEDEEMDVGTDEEEETAKESTAE
notes: also called NO; 43; GRP94 CDB-CT domain; not shown: His6 tag from pET24b(+)
**Q.** With B2 as the binder, how does the IC50 [2] read?
**A.** ~113 nM

B3: SEQ ID NO 64, alanine-scanning mutant of GRP94 lacking KDEL (taken as AA1) (other)
chain: DDEVDVDGTVEEDLGKSREGSRTDDEVVQREEEAIQLDGLNASQIRELREKSEKFAFQAEVNRMMKLIINSLYKNKEIFLRELISNASDALDKIRLISLTDENALSGNEELTVKIKCDKEKNLLHVTDTGVGMTREELVKNLGTIAKSGTSEFLNKMTEAQEDGQSTSELIGQFGVGFYSAFLVADKVIVTSKHNNDTQHIWESDSNEFSVIADPRGNTLGRGTTITLVLKEEASDYLELDTIKNLVKKYSQFINFPIYVWSSKTETVEEPMEEEEAAKEEKEESDDEAAVEEEEEEKKPKTKKVEKTVWDWELMNDIKPIWQRPSKEVEEDEYKAFYKSFSKESDDPMAYIHFTAEGEVTFKSILFVPTSAPRGLFDEYGSKKSDYIKLYVRRVFITDDFHDMMPKYLNFVKGVVDSDDLPLNVSRETLQQHKLLKVIRKKLVRKTLDMIKKIADDKYNDTFWKEFGTNIKLGVIEDHSNRTRLAKLLRFQSSHHPTDITSLDQYVERMKEKQDKIYFMAGSSRKEAESSPFVERLLKKGYEVIYLTEPVDEYCIQALPEFDGKRFQNVAKEGVKFDESEKTKESREAVEKEFEPLLNWMKDKALKDKIEKAVVSQRLTESPCALVASQYAASAAAAAIMKAQAYQTGKDISTNYYASQKKTFEINPRHPLIRDMLRRIKEDEDDKTVLDLAVVLFETATLRSGYLLPDTKAYGDRIERMLRLSLNIDPDAKVEEEPEEEPEETAEDTTEDTEQDEDEEMDVGTDEEEETAKESTAEYPYDVPDYA
**Q.** Does B3 bind [1]?
**A.** no binding

B4: SEQ ID NO 65, alanine-scanning mutant of GRP94 lacking KDEL (taken as AA2) (other)
chain: DDEVDVDGTVEEDLGKSREGSRTDDEVVQREEEAIQLDGLNASQIRELREKSEKFAFQAEVNRMMKLIINSLYKNKEIFLRELISNASDALDKIRLISLTDENALSGNEELTVKIKCDKEKNLLHVTDTGVGMTREELVKNLGTIAKSGTSEFLNKMTEAQEDGQSTSELIGQFGVGFYSAFLVADKVIVTSKHNNDTQHIWESDSNEFSVIADPRGNTLGRGTTITLVLKEEASDYLELDTIKNLVKKYSQFINFPIYVWSSKTETVEEPMEEEEAAKEEKEESDDEAAVEEEEEEKKPKTKKVEKTVWDWELMNDIKPIWQRPSKEVEEDEYKAFYKSFSKESDDPMAYIHFTAEGEVTFKSILFVPTSAPRGLFDEYGSKKSDYIKLYVRRVFITDDFHDMMPKYLNFVKGVVDSDDLPLNVSRETLQQHKLLKVIRKKLVRKTLDMIKKIADDKYNDTFWKEFGTNIKLGVIEDHSNRTRLAKLLRFQSSHHPTDITSLDQYVERMKEKQDKIYFMAGSSRKEAESSPFVERLLKKGYEVIYLTEPVDEYCIQALPEFDGKRFQNVAKEGVKFDESEKTKESREAVEKEFEPLLNWMKDKALKDKIEKAVVSQRLTESPCALVASQYGWSGNMERIMKAQAYATGKAISTNAAASQKKTFEINPRHPLIRDMLRRIKEDEDDKTVLDLAVVLFETATLRSGYLLPDTKAYGDRIERMLRLSLNIDPDAKVEEEPEEEPEETAEDTTEDTEQDEDEEMDVGTDEEEETAKESTAEYPYDVPDYA
**Q.** Does B4 bind [1]?
**A.** no binding
